# IntAct's records for PubMed 12679340
# B1: Ornithine carbamoyltransferase (Saccharomyces cerevisiae), P05150 (parent)
# chain: MSTTASTPSSLRHLISIKDLSDEEFRILVQRAQHFKNVFKANKTNDFQSNHLKLLGRTIALIFTKRSTRTRISTEGAATFFGAQPMFLGKEDIQLGVNESFYDTTKVVSSMVSCIFARVNKHEDILAFCKDSSVPIINSLCDKFHPLQAICDLLTIIENFNISLDEVNKGINSKLKMAWIGDANNVINDMCIACLKFGISVSISTPPGIEMDSDIVDEAKKVAERNGATFELTHDSLKASTNANILVTDTFVSMGEEFAKQAKLKQFKGFQINQELVSVADPNYKFMHCLPRHQEEVSDDVFYGEHSIVFEEAENRLYAAMSAIDIFVNNKGNFKDLK
# Variants of: B1
# Conditions: with argi_yeast CAR1, P00812
# argi_yeast CAR1, P00812, sequence (P00812 whole entry): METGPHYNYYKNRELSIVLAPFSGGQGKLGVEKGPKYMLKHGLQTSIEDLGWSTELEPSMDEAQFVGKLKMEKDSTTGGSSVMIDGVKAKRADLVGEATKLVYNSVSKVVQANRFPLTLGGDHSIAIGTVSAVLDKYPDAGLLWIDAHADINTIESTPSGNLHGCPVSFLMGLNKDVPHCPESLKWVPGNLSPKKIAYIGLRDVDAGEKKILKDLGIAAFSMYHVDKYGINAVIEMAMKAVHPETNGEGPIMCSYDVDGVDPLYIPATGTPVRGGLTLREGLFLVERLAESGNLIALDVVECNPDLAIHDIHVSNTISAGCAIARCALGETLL
row,effect of a mutation on the interaction,Variant
1,decreasing interaction,D182N
